According to patent publication US20170306033A1 (Amgen, published 2017):
Numbering of substitutions follows the chain as printed.

T1: human PAC1 receptor (human, UniProt P41586 21-468)
T1 sequence: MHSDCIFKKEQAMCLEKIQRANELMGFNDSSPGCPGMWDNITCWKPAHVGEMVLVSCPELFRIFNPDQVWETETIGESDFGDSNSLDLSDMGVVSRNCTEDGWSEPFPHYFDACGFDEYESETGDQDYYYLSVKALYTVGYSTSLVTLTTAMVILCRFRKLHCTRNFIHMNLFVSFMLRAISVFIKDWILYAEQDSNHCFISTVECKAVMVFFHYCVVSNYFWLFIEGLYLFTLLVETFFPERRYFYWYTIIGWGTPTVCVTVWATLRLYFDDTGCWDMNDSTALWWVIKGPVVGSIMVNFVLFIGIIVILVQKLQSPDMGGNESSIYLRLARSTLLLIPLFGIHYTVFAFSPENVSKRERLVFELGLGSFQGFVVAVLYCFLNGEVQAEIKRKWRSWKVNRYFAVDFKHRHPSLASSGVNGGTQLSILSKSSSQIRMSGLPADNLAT

B1: iPS:392514 (bispecific antibody, human IgG1, kappa, lambda, N297G)
light: DIQLTQSPSFLSASVGDRVTITCRASQSIGRSLHWYQQKPGKAPKLLIKYASQSLSGVPSRFSGSGSGTEFTLTISSLQPEDFATYYCHQSSRLPFTFGPGTKVDIKRTVAAPSVFIFPPSDEQLKSGTASVVCLLNNFYPREAKVQWKVDNALQSGNSQESVTEQDSKDSTYSLESTLTLSKADYEKHKVYACEVTHQGLSSPVTKSFNRGEC
heavy: not shown
chain: QVQLVESGGGVVQPGRSLRLSCAASGFTFSSFGMHWVREAPGKGLEWVAVISFDGSIKYSVDSVKGRFTISRDNSKNTLFLQMNSLRAEDTAVYYCARDRLNYYDSSGYYHYKYYGMAVWGQGTTVTVSSGQPKANPTVTLFPPSSEELQANKATLVCLISDFYPGAVTVAWKADGSPVKAGVETTKPSKQSNNKYAAESYLSLTPEQWKSHRSYSCQVTHEGSTVEKTVAPTECS
B2: iPS:392522 (bispecific antibody, human IgG1, kappa, lambda, N297G)
light: B1 light with Q38E
heavy: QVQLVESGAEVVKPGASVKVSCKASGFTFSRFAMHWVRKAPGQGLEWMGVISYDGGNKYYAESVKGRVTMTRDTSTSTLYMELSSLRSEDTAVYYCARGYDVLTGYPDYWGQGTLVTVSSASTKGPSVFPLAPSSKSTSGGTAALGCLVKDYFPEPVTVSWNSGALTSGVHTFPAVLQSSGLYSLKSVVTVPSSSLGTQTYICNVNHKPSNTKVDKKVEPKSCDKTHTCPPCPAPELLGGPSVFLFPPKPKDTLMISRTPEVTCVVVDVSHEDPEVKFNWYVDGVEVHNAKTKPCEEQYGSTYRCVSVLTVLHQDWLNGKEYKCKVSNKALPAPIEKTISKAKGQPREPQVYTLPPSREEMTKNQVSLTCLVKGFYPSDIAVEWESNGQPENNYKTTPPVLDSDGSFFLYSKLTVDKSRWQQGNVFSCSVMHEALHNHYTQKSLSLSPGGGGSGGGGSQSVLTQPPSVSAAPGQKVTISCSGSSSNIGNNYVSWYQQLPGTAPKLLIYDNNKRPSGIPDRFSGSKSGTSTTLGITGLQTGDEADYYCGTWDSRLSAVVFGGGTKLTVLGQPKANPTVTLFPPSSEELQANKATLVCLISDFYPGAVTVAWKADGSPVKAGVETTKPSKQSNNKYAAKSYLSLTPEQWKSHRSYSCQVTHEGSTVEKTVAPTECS
chain: QVQLVESGGGVVQPGRSLRLSCAASGFTFSSFGMHWVRQAPGKGLEWVAVISFDGSIKYSVDSVKGRFTISRDNSKNTLFLQMNSLRAEDTAVYYCARDRLNYYESSGYYHYKYYGMAVWGQGTTVTVSSASTKGPSVFPLAPSSKSTSGGTAALGCLVKDYFPEPVTVSWNSGALTSGVHTFPAVLQSSGLYSLESVVTVPSSSLGTQTYICNVNHKPSNTKVDKKV
B3: iPS:392515 (bispecific antibody, human IgG1, kappa, lambda, N297G)
light: B1 light
heavy: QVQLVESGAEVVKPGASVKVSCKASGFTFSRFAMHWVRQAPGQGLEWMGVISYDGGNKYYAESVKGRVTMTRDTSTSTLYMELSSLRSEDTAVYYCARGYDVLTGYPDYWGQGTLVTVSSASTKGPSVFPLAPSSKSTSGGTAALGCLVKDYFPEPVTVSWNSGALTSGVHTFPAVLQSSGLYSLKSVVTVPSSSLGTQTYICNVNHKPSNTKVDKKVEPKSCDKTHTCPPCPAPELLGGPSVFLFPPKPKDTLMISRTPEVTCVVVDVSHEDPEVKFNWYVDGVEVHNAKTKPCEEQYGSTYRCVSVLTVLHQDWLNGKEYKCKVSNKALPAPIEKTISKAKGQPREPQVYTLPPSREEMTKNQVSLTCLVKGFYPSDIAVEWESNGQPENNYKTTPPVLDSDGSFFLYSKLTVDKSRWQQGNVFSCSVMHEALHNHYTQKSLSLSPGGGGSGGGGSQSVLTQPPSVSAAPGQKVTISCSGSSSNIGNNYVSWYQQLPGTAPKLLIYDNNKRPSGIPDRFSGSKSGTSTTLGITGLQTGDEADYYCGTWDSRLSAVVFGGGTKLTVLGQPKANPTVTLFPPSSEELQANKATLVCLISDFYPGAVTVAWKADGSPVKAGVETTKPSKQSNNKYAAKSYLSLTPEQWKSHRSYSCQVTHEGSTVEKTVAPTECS
chain: B2 chain with E105D
B4: iPS:392517 (bispecific antibody, human IgG1, kappa, lambda, N297G)
light: B1 light with Q38E
heavy: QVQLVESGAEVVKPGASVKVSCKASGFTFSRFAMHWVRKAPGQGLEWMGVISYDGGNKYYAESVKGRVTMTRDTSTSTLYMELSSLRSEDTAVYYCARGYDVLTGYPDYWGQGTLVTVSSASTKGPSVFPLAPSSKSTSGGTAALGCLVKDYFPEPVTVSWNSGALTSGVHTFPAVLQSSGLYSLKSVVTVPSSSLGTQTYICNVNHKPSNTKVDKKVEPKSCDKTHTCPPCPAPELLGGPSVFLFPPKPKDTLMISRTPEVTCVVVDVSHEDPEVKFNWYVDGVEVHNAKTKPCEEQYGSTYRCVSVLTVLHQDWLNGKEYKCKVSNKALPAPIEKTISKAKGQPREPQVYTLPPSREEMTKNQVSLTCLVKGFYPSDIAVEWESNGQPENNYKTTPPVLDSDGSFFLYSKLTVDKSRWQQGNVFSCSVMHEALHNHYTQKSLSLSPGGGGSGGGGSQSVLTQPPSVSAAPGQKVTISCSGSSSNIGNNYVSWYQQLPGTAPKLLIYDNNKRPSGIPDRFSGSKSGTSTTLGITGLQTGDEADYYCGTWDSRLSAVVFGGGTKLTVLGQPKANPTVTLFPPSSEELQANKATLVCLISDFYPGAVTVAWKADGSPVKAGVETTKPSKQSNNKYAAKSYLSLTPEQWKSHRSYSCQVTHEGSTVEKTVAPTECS
chain: B2 chain with E105D
B5: iPS:392519 (bispecific antibody, human IgG1, kappa, lambda, N297G)
light: B1 light
heavy: not shown
chain: B1 chain with D105E
B6: iPS:392520 (bispecific antibody, human IgG1, kappa, lambda, N297G)
light: B1 light
heavy: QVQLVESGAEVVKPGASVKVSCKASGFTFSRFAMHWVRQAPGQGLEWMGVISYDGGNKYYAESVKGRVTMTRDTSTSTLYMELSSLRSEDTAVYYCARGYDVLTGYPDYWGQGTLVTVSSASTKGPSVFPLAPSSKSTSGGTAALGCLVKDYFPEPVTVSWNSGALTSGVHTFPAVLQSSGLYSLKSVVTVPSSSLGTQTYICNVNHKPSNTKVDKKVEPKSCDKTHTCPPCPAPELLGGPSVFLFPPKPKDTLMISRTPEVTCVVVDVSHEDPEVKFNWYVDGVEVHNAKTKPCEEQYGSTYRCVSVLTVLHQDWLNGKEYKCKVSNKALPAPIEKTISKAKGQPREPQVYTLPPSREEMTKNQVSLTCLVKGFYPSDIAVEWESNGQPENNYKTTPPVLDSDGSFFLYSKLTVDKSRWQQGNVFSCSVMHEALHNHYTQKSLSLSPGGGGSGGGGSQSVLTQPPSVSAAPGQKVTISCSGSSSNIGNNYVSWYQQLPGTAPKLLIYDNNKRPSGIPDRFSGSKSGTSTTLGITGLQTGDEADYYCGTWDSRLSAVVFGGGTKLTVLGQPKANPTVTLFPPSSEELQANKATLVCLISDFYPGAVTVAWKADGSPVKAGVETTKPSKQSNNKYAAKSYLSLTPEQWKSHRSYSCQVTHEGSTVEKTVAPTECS
chain: B2 chain
B7: iPS:392518 (bispecific antibody, human IgG1, kappa, lambda, N297G)
light: B1 light with Q38E
heavy: not shown
chain: B2 chain with Q39E, E105D
B8: iPS:392516 (bispecific antibody, human IgG1, kappa, lambda, N297G)
light: B1 light
heavy: not shown
chain: B2 chain with Q39E, E105D
B9: iPS:392523 (bispecific antibody, human IgG1, kappa, lambda, N297G)
light: B1 light with Q38E
heavy: not shown
chain: B2 chain with Q39E
B10: iPS:392521 (bispecific antibody, human IgG1, kappa, lambda, N297G)
light: B1 light
heavy: not shown
chain: B2 chain with Q39E
B11: iPS:392524 (bispecific antibody, human IgG1, kappa, lambda, N297G)
light: QSVLTQPPSVSAAPGQKVTISCSGSSSNIGNNYVSWYQQLPGTAPKLLIYDNNKRPSGIPDRFSGSKSGTSTTLGITGLQTGDEADYYCGTWDSRLSAVVFGGGTKLTVLGQPKANPTVTLFPPSSEELQANKATLVCLISDFYPGAVTVAWKADGSPVKAGVETTKPSKQSNNKYAAKSYLSLTPEQWKSHRSYSCQVTHEGSTVEKTVAPTECS
heavy: not shown
chain: QVQLVESGAEVVKPGASVKVSCKASGFTFSRFAMHWVRQAPGQGLEWMGVISYDGGNKYYAESVKGRVTMTRDTSTSTLYMELSSLRSEDTAVYYCARGYDVLTGYPDYWGQGTLVTVSSTVAAPSVFIFPPSDEQLKSGTASVVCLLNNFYPREAKVQWKVDNALQSGNSQESVTEQDSKDSTYSLKSTLTLSKADYEKHKVYACEVTHQGLSSPVTKSFNRGEC
B12: iPS:392530 (bispecific antibody, human IgG1, kappa, lambda, N297G)
light: B11 light with Q39K
heavy: not shown
chain: QVQLVESGAEVVKPGASVKVSCKASGFTFSRFAMHWVRQAPGQGLEWMGVISYDGGNKYYAESVKGRVTMTRDTSTSTLYMELSSLRSEDTAVYYCARGYDVLTGYPDYWGQGTLVTVSSASTKGPSVFPLAPSSKSTSGGTAALGCLVKDYFPEPVTVSWNSGALTSGVHTFPAVLQSSGLYSLKSVVTVPSSSLGTQTYICNVNHKPSNTKVDKKV
B13: iPS:392529 (bispecific antibody, human IgG1, kappa, lambda, N297G)
light: B11 light
heavy: not shown
chain: B12 chain with Q39K
B14: iPS:392534 (bispecific antibody, human IgG1, kappa, lambda, N297G)
light: B11 light with Q39K
heavy: not shown
chain: B12 chain
B15: iPS:392525 (bispecific antibody, human IgG1, kappa, lambda, N297G)
light: B11 light
heavy: not shown
chain: B11 chain with Q39K
B16: iPS:392531 (bispecific antibody, human IgG1, kappa, lambda, N297G)
light: B11 light with Q39K
heavy: not shown
chain: B12 chain with Q39K
B17: iPS:392532 (bispecific antibody, human IgG1, kappa, lambda, N297G)
light: B11 light
heavy: not shown
chain: B12 chain
B18: iPS:392535 (bispecific antibody, human IgG1, kappa, lambda, N297G)
light: B11 light with Q39K
heavy: not shown
chain: B12 chain with Q39K
B19: iPS:392528 (bispecific antibody, human IgG1, kappa, lambda, N297G)
light: B11 light
heavy: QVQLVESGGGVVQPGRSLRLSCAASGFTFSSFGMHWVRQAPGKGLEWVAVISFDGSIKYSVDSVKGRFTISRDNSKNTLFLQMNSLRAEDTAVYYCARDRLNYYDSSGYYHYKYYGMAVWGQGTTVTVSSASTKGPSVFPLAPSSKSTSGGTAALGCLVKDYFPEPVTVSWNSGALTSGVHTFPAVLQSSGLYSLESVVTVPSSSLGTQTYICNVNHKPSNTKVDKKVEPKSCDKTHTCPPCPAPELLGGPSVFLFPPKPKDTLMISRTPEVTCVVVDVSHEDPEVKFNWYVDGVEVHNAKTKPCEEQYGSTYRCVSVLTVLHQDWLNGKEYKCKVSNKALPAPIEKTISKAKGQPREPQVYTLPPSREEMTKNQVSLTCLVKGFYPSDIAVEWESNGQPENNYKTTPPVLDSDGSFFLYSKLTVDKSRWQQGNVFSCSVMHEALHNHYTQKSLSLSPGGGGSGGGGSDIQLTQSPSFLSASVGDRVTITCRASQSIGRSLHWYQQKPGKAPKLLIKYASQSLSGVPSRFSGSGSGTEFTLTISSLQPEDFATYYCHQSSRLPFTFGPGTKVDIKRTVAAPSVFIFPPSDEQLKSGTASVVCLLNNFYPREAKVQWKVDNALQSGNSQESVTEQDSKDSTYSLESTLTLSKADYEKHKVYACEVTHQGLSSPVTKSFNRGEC
chain: B12 chain
B20: iPS:392526 (bispecific antibody, human IgG1, kappa, lambda, N297G)
light: B11 light
heavy: not shown
chain: B11 chain
B21: iPS:392533 (bispecific antibody, human IgG1, kappa, lambda, N297G)
light: B11 light
heavy: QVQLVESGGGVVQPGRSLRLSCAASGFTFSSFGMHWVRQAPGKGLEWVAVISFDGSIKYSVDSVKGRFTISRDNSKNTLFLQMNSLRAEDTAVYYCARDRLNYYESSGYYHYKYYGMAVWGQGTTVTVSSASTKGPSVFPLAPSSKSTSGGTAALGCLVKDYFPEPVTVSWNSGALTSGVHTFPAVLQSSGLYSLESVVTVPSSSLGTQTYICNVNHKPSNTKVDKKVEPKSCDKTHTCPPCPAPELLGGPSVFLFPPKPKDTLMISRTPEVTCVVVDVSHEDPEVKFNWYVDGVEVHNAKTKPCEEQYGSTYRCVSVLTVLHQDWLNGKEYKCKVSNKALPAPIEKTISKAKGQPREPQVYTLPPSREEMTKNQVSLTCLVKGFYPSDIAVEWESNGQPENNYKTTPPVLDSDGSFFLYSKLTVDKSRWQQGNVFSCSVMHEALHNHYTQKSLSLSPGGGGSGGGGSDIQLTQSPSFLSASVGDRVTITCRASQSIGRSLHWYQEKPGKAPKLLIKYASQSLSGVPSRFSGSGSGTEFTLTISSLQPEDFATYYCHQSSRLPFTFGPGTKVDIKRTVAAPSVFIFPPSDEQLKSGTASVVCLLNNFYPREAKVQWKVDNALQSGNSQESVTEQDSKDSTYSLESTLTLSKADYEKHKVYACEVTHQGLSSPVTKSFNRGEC
chain: B12 chain with Q39K
B22: iPS:392527 (bispecific antibody, human IgG1, kappa, lambda, N297G)
light: B11 light
heavy: not shown
chain: B11 chain with Q39K

Target: human CGRP receptor (human, UniProt Q16602 23-461; O60894 27-148)
Sequence (Q16602 23-461 limits assumed, chain 1 of 2): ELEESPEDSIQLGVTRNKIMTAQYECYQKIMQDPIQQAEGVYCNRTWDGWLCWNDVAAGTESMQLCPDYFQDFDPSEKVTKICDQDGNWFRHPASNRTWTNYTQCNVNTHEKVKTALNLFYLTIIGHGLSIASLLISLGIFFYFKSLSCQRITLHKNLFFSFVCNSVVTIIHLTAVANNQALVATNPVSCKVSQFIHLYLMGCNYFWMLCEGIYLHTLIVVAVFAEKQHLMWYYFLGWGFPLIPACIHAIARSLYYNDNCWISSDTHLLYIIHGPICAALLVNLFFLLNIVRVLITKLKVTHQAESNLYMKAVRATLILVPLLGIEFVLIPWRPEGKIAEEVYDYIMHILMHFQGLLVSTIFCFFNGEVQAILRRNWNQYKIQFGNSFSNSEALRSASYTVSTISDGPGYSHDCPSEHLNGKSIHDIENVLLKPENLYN
Sequence (O60894 27-148 limits assumed, chain 2 of 2): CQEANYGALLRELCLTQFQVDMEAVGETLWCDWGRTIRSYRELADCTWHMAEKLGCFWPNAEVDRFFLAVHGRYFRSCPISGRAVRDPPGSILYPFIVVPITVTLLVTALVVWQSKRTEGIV
Test: cell-based or functional assay

Row | Human CGRP Receptor IC50 | Human CGRP Receptor IC50 (nM), lot #1 | Human CGRP Receptor IC50 (nM), lot #2 | Binder
1 | 54 nM |  |  | B1
2 |  | 8.8 nM | 7.58 nM | B2
3 | 12.9 nM |  |  | B3
4 |  | 10.9 nM | 11.5 nM | B4
5 | 81.3 nM |  |  | B5
6 | 10.5 nM |  |  | B6
7 | 17.8 nM |  |  | B7
8 | 27.9 nM |  |  | B8
9 | 20.4 nM |  |  | B9
10 | 18.8 nM |  |  | B10
11 | 0.86 nM |  |  | B11
12 | 0.38 nM |  |  | B12
13 | 0.56 nM |  |  | B13
14 | 0.37 nM |  |  | B14
15 | 1.22 nM |  |  | B15
16 | 0.42 nM |  |  | B16
17 | 0.51 nM |  |  | B17
18 | 0.41 nM |  |  | B18
19 | 0.55 nM |  |  | B19
20 | 0.71 nM |  |  | B20
21 | 0.59 nM |  |  | B21
22 | 0.42 nM |  |  | B22

Target: T1, human PAC1 receptor
Test: cell-based or functional assay

Row | Human PAC1 Receptor IC50 | Human PAC1 Receptor IC50 (nM), lot #1 | Human PAC1 Receptor IC50 (nM), lot #2 | Binder
23 | 4.69 nM |  |  | B1
24 |  | 9.32 nM | 3.29 nM | B2
25 | 2.66 nM |  |  | B3
26 |  | 2.48 nM | 7.75 nM | B4
27 | 6.87 nM |  |  | B5
28 | 6.28 nM |  |  | B6
29 | 3.4 nM |  |  | B7
30 | 9.3 nM |  |  | B8
31 | 5.03 nM |  |  | B9
32 | 6.88 nM |  |  | B10
33 | 81.2 nM |  |  | B11
34 | > 1000 nM |  |  | B12
35 | > 1000 nM |  |  | B13
36 | 349 nM |  |  | B14
37 | 37.1 nM |  |  | B15
38 | > 1000 nM |  |  | B16
39 | 352 nM |  |  | B17
40 | 365 nM |  |  | B18
41 | > 1000 nM |  |  | B19
42 | 116 nM |  |  | B20
43 | 206 nM |  |  | B21
44 | 16.4 nM |  |  | B22
